In paper PMC2852676 (Current Biology, 2010):

Molecular target: T1, Smc3 hinge domain fusion protein, wild type (Smc3H) (yeast, UniProt P47037 495-705)
T1 sequence: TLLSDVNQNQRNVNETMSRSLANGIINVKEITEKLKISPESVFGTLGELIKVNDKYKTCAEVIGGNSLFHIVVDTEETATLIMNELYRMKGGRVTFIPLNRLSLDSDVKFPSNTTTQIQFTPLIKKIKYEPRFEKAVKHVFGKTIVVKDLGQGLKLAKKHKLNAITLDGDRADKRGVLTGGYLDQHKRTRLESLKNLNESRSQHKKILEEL
Assay: SEC

B1: Smc1 hinge domain fusion protein, wild type (Smc1H) (domain or fragment)
chain: SANQRETMKERKLRENIAMLKRFFPGVKGLVHDLCHPKKEKYGLAVSTILGKNFDSVIVENLTVAQECIAFLKKQRAGTASFIPLDTIETELPTLSLPDSQDYILSINAIDYEPEYEKAMQYVCGDSIICNTLNIAKDLKWKKGIRGKLVTIEGALIHKAGLMTGGISGDANNRWDKEE
- binding result: binds
